To fix the notation:
B1: ch-225.28S antibody (murine 225.28S VH and VL with human constant regions) (antibody, V domains shown)
VH: QVKLQQSGGGLVQPGGSMKLSCVVSGFTFSNYWMNWVRQSPEKGLEWIAEIRLKSNNFGRYYAESVKGRFTISRDDSKSSAYLQMINLRAEDTGIYYCTSYGNYVGHYFDHWGQGTTVTVSS
VL: DIELTQSPKFMSTSVGDRVSVTCKASQNVDTNVAWYQQKPGQSPEPLLFSASYRYTGVPDRFTGSGSGTDFTLTISNVQSEDLAEYFCQQYNSYPLTFGGGTKLEIK
notes: also called mVH/mVL
B2: M-HLE1 heavy chain paired with the light chain construct M-KV4 (antibody, V domains shown)
VH: EVQLVESGGGLVKPGGSLRLSCAASGFTFSNYWMNWVRQAPGKGLEWVGEIRLKSNNFGRYYAQKFQERVTITRDMSTSTAYMELSSLRSEDTAVYYCAAYGNYVGHYFDHWGQGTTVTVSS
VL: DIQLTQSPSFLSASVGDRVTITCKASQNVDTNVAWYQQKPGKAPEPLLFSASYRYTGVPSRFSGSGSGTEFTLTISSLQPEDFATYYCQQYNSYPLTFGGGTKVEIKR
notes: also called M-HLE1/M-KV4
B3: M-HLC heavy chain combined with the light chain construct M-KV3 (antibody, V domains shown)
VH: QVQLVQSGAEVKKPGASVKVSCKASGYTFTNYWMNWVRQAPGQGLEWMGEIRLKSNNFGRYYAESVKGRVTITRDTSMSTAYMELSSLRSEDTAVYYCAAYGNYVGHYFDHWGQGTTVTVSS
VL: B2 VL with I21V
notes: also called M-HLC/M-KV3
B4: M-HLB heavy chain combined with the light chain construct M-KV3 (antibody, V domains shown)
VH: B3 VH with E64Q, S65K, V66F, K67Q
VL: B2 VL with I21V
notes: also called M-HLB/M-KV3
B5: M-HLA heavy chain combined with the light chain construct M-KV3 (antibody, V domains shown)
VH: B3 VH with E64Q, S65K, V66F, K67Q, I72M, M78T, A81V, A100R
VL: B2 VL with I21V
notes: also called M-HLA/M-KV3
B6: M-HLD heavy chain paired with the M-KV9 light chain (antibody, V domains shown)
VH: B3 VH with Y27F, T30S
VL: B2 VL with K42Q, E45R, L48I, F49Y
notes: also called M-HLD/M-KV9
B7: M-KV3 light chain coexpressed with murine 225.28S heavy chain (mVH) (antibody, V domains shown)
VH: B1 VH
VL: B2 VL with I21V
notes: The VL entry ends in KRT; also called mVH/M-KV3
B8: M-HLE2 heavy chain paired with the light chain construct M-KV4 (antibody, V domains shown)
VH: B2 VH with Q64E, K65S, F66V, Q67K, E68G
VL: B2 VL
notes: also called M-HLE2/M-KV4
B9: M-HHB heavy chain coexpressed with murine 225.28S light chain (mVL) (antibody, V domains shown)
VH: EVQLVESGGGLVKPGGSLRLSCAASGFTFSNYWMNWVRQAPGKGLEWVGEIRLKSNNFGRYYAESVKGRFTISRDDSKNTLYLQMNSLKTEDTAVYYCTSYGNYVGHYFDHWGQGTTVTVSS
VL: B1 VL
notes: also called M-HHB/mVL
B10: humanized M-HLG/M-KV9 construct of the 225.28S antibody (antibody, V domains shown)
VH: B9 VH with K13Q, G49A, E64A, S100T
VL: B2 VL with K42Q, E45R, L48I, F49Y
notes: also called M-KV9 together with M-HLG
B11: M-KV12 light chain combined with the M-HLG heavy chain (antibody, V domains shown)
VH: B9 VH with K13Q, G49A, E64A, S100T
VL: B2 VL with K42Q, E45R, L48I, F49Y, R54L, Y55Q, T56S
notes: also called M-HLG/M-KV12
B12: M-KV4 light chain paired with the M-HHB heavy chain (antibody, V domains shown)
VH: B9 VH
VL: B2 VL
notes: also called M-HHB/M-KV4
B13: M-KV6 light chain paired with the M-HHB heavy chain (antibody, V domains shown)
VH: B9 VH
VL: B2 VL with Y36F, K39R, K42Q, A43S, E45R, P46R, L48I, F49Y
notes: also called M-HHB/M-KV6
B14: M-KV10 light chain combined with the M-HLG heavy chain (antibody, V domains shown)
VH: B9 VH with K13Q, G49A, E64A, S100T
VL: B2 VL with K24R, V33L, K42Q, E45R, L48I, F49Y
notes: also called M-HLG/M-KV10
B15: M-HLG heavy chain paired with the light chain construct M-KV4 (antibody, V domains shown)
VH: B9 VH with K13Q, G49A, E64A, S100T
VL: B2 VL
notes: also called M-HLG/M-KV4
B16: M-KV7 light chain paired with the M-HHB heavy chain (antibody, V domains shown)
VH: B9 VH
VL: B2 VL with E45K, L48I, F49Y
notes: also called M-KV7 antibody; M-HHB/M-KV7
B17: M-KV5 light chain paired with the M-HHB heavy chain (antibody, V domains shown)
VH: B9 VH
VL: B2 VL with Q37L, K42Q, A43S, E45Q, P46L, L48I, F49Y
notes: also called M-HHB/M-KV5
B18: M-HHC heavy chain coexpressed with murine 225.28S light chain (mVL) (antibody, V domains shown)
VH: B9 VH with G49A, E50N
VL: B1 VL
notes: also called M-HHC/mVL
B19: M-KV9 light chain combined with the M-HHB heavy chain (antibody, V domains shown)
VH: B9 VH
VL: B2 VL with K42Q, E45R, L48I, F49Y
notes: also called M-KV9 with M-HHB; M-HHB/M-KV9
B20: M-HHA heavy chain coexpressed with murine 225.28S light chain (mVL) (antibody, V domains shown)
VH: B9 VH with E64A, S100T
VL: B1 VL
notes: also called M-HHA/mVL

Where a chain is given by its changes, count along the chain named.

Results on 20 molecules are retold here after patent publication US20060223096A1 (GLYCART BIOTECHNOLOGY, published 2006).

The target of one assay is T1, human melanoma chondroitin sulfate proteoglycan (MCSP) (human, UniProt Q6UVK1 30-2322).
T1 construct: whole, on cells; also called HMW-MAA; high molecular weight-melanoma-associated antigen
T1 sequence (Q6UVK1 30-2322): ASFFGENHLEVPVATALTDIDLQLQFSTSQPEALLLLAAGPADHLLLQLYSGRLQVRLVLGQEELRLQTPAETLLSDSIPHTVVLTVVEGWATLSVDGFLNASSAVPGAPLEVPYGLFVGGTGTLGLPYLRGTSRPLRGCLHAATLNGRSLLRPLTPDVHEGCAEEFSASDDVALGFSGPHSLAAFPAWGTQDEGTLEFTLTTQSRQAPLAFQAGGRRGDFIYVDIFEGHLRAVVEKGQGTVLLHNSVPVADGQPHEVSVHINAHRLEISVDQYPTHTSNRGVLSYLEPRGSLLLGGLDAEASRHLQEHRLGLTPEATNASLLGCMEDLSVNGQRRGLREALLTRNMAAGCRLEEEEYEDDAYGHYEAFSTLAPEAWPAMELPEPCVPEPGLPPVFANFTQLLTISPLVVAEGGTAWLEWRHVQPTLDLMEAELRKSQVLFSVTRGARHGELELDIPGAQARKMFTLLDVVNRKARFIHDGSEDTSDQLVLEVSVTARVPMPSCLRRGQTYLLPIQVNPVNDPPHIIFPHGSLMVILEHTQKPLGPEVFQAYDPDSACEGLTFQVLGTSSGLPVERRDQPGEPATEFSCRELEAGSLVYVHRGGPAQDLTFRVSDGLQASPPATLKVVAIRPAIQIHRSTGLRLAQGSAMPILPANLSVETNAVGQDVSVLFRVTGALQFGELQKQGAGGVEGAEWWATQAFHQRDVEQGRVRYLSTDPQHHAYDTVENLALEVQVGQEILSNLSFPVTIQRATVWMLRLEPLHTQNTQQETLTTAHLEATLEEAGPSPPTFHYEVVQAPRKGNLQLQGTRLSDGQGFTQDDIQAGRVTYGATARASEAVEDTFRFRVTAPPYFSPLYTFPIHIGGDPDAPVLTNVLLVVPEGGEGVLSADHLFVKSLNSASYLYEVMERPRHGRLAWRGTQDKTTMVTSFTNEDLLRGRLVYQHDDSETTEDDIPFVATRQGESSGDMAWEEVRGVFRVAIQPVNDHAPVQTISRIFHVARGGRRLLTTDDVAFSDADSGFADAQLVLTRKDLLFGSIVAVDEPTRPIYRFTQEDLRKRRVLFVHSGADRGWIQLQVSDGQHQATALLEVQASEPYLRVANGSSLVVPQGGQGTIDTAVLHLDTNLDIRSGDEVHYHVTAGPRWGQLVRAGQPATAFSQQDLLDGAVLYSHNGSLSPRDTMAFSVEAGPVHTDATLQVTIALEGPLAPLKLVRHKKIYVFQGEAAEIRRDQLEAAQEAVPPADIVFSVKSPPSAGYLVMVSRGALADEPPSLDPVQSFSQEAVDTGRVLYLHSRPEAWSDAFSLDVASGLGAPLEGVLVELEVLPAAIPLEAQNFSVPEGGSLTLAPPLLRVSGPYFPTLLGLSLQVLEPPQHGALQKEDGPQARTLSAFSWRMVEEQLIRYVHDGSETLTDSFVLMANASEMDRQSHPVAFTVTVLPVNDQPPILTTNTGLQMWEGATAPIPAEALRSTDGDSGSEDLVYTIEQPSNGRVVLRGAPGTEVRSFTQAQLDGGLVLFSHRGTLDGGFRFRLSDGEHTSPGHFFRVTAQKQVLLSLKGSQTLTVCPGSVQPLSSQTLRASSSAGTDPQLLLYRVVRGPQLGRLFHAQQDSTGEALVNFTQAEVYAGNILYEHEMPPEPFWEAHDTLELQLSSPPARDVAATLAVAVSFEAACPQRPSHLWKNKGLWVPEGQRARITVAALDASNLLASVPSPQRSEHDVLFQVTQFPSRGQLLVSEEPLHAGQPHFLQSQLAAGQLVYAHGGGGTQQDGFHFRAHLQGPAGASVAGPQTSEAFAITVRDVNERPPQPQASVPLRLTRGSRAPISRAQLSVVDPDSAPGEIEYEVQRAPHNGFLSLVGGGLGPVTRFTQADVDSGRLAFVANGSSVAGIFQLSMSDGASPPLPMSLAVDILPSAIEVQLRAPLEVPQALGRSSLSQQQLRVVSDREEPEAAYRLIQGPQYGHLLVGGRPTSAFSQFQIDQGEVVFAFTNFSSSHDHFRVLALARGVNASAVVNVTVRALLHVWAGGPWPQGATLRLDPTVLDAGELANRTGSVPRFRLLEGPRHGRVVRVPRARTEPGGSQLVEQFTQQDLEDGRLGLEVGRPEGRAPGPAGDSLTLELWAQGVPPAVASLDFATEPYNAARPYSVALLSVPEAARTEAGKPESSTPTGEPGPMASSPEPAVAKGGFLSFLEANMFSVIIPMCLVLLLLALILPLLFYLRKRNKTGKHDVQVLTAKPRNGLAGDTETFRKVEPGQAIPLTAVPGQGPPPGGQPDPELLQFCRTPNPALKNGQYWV
The experiment in a line: flow cytometry on A375 human melanoma cells; reference antibody of the comparison. On the procedure: (§1) The purified, monomeric humanized antibody variants were tested for binding to the human HMW-MAA/MCSP antigen on the A375 human melanoma cell line, using a flow cytometry-based assay. 200,000 cells (in 180 μl FACS buffer (PBS containing 2% FCS and 5 mM EDTA) were transferred to 5 ml polystyrene tubes and 20 μl 10 fold concentrated anti-MCSP antibody (primary antibody) samples (1-5000 ng/ml final concentration) or PBS only were added. After gently mixing the samples, the tubes were incubated at 4° C. for 30 min in the dark. Subsequently, samples were washed twice with FACS buffer and pelleted at 300 g for 3 min. Supernatant was aspirated off and cells were taken up in 50 μl FACS buffer and 2 μl secondary antibody (anti-Fc-specific F(ab′)2-FITC fragments (Jackson Immuno Research Laboratories, USA)) was added and the tubes were incubated at 4° C. for 30 min. Samples were washed twice with FACS buffer and taken up in 500 μl of FACS buffer for analysis by Flow Cytometry. Binding was determined by plotting the geometric mean fluorescence against the antibody concentrations.
As for B1, the binding result is recorded as “binds”.

The next assay deals with T1, human melanoma chondroitin sulfate …. The assay can be described thus: flow cytometry on A375 human melanoma cells. On the procedure:
as §1
Background: Flow cytometry measures light scatter and fluorescence of single cells or particles in a stream.
B2: the binding result was “binds”.
As for B3, the binding result is reported as “no binding (tested: 1-5000 ng/ml final concentration)”.
Turning to B4, the binding result is “no binding (tested: 1-5000 ng/ml final concentration)”.
On the same count and under the same terms, under B5 stands “no binding (tested: 1-5000 ng/ml final concentration)”; under B6, “binds”.
In the case of B7, the binding result is reported as “binds”.
B8: the binding result is recorded as “binds”.
Regarding B9, the binding result was “binds”.
Still for that read-out and setting: under B10 stands “binds”; under B11, “binds”; under B12, “binds”.
Same read-out and setting: as for B13, the entry is “no binding (tested: 1-5000 ng/ml final concentration)”.
Still for that read-out and setting: under B14 stands “binds”; under B15, “binds”.
Take B16: the binding result is given as “binds”.
For the molecule B17, the binding result is recorded as “no binding (tested: 1-5000 ng/ml final concentration)”.
Still for that read-out and setting: under B18 stands “binds”; under B19, “binds”.
Same read-out and setting: as for B20, the entry is “binds”.
